Experimental data reported in patent US20220213181A1 (Novartis, published 2022).
Changes are numbered by the printed parent chain.

T1: Human ANGPTL3(17-460)-FLAG-His-Avi (human, UniProt Q9Y5C1 17-460, biotin on the C-terminal Avi tag (BirA))
T1 construct: also called full length human ANGPTL3; hANGPTL3
T1 sequence: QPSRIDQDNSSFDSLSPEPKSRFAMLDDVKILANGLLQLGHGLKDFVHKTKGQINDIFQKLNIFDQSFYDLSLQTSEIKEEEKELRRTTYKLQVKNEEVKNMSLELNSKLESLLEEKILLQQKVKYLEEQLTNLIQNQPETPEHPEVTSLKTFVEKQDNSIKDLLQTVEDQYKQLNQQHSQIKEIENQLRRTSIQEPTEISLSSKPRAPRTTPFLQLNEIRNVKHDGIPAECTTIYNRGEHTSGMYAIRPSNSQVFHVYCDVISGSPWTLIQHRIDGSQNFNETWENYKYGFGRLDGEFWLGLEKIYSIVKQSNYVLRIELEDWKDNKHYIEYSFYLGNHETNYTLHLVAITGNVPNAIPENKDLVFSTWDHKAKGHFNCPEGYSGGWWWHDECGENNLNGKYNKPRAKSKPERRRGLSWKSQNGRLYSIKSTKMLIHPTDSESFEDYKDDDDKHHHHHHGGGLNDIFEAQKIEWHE

T2: Human ANGPTL4(26-406)-FLAG-His6-Avi (human, UniProt Q9BY76 24-406, biotin on the C-terminal Avi tag (BirA) where the protein is immobilised)
T2 construct: the text calls it 20 amino acids), then QP, ANGPTL4 26-406 and FLAG-His6-Avi; the signal peptide is left out here; also called full length human ANGPTL4; hANGPTL4
T2 sequence: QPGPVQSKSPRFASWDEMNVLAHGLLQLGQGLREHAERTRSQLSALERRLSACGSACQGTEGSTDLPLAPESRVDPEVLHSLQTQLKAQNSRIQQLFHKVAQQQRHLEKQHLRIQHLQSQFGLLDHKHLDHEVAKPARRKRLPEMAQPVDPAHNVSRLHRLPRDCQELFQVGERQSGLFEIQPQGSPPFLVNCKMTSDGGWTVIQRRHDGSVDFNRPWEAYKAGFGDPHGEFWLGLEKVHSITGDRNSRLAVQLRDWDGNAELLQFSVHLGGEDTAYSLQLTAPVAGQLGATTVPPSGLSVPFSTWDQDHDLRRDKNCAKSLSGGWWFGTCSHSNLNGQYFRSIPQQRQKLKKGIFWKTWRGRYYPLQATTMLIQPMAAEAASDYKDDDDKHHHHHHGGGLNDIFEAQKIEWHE

B1: NEG276 (antibody, human IgG1, kappa)
heavy: not shown
light: EIVMTQSPATLSVSPGERATLSCKASQDIGSNLNWLQQKPGQAPRRLIYAVSNRGPGIPARFSGSRSGSEYTLTISSLQSEDFAVYYCLQYASSPWTFGQGTKVEIKRTVAAPSVFIFPPSDEQLKSGTASVVCLLNNFYPREAKVQWKVDNALQSGNSQESVTEQDSKDSTYSLSSTLTLSKADYEKHKVYACEVTHQGLSSPVTKSFNRGEC
notes: humanized, hIgG1/kappa, parental antibody 19C16
B2: NEG278 (antibody, human IgG1, kappa, V domains shown)
VH: QVQLVQSGAEVKKPGASVKVSCKASAYTFTSSWMQWVRQAPGQGLEWMGEIDPSDNYANYNQKFQGRVTLTVDTSTSTAYMELSSLRSEDTAVYYCASGSYFSNFFDYWGQGTLVTVSS
VL: EIVMTQSPATLSVSPGERATLSCKASQDIGSNLNWLQQKPGQAPRRLIYAASVREPGIPARFSGSRSGSEYTLTISSLQSEDFAVYYCLQYASSPWTFGQGTKVEIKR
notes: as for B1
B3: NEG310 (antibody, human IgG1, kappa, V domains shown)
VH: QVQLVQSGAEVKKPGASVKVSCKASGYTFTSYTMHWVRQAPGQGLEWMGYINPSSGYTKYNQKFQGRVTMTADKSTSTAYMELSSLRSEDTAVYYCAEGWLLLAMDYWGQGTLVTVSS
VL: EAVVTQSPATLSLSPGERATLSCRSSTGAVTTSNYAIWVQEKPGQAPRGLIGGTNNRAPGIPARFSGSLSGDDATLTISSLQPEDFAVYFCALWYSDHWVFGQGTKVEIKR
notes: humanized, hIgG1/kappa, parental antibody 17B1
B4: NEG315 (antibody, human IgG1, kappa, V domains shown)
VH: QVQLVQSGAEVKKPGASVKVSCKASGYTFTNYWITWVRQAPGQGLEWMGDFYPGGGNTNYNAKLQGRVTLTVDTSTSTAYMELRSLRSDDTAVYYCARSPPQVAPFDYWGQGTLVTVSS
VL: DIQMTQSPSSLSASVGDRVTITCQASEYIYNWLGWYQQKPGKAPKLLISGASGLETGVPSRFSGSGSGKDYTFTISSLQPEDIATYYCQQYWSTPWTFGQGTKLEIKR
notes: humanized, hIgG1/kappa, parental antibody 37P1
B5: NEG319 (antibody, human IgG1, kappa, V domains shown)
VH: B4 VH with N31S, Y32F, F51I, G56A, A62E, A104G
VL: B4 VL with Y30I, G34A, S52T, T94I
notes: humanized, hIgG1/kappa, parental antibody 14P18
B6: NEG313 (antibody, human IgG1, kappa, V domains shown)
VH: B4 VH with T30N, N57S
VL: B4 VL with E27D, N31H
notes: as for B4
B7: NEG318 (antibody, human IgG1, kappa, V domains shown)
VH: B4 VH with N31S, Y32F, F51I, G56A, N57T, A62E, A104G
VL: B4 VL with E27D, N31H, G34A, G53S, T94I
notes: as for B5
B8: NEG276-LALA (antibody, human IgG1, kappa, L234A L235A)
heavy: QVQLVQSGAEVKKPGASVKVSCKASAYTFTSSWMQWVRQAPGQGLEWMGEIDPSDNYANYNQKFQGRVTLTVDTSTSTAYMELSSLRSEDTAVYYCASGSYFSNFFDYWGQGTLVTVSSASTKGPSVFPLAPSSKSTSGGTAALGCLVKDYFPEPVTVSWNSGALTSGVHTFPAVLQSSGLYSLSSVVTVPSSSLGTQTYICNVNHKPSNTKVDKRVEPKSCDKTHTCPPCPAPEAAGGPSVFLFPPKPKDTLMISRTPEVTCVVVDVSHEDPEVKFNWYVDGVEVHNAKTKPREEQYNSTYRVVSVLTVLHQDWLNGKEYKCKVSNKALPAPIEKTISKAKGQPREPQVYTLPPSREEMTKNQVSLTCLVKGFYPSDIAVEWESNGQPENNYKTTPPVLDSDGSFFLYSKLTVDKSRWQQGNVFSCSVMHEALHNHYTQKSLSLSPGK
light: B1 light

What follows are binders tested against T1, Human ANGPTL3(17-460)-FLAG-His-Avi (assay: direct ELISA on MSD streptavidin plate, biotinylated antigen immobilized at 1 nM, antibody at 1 nM, Sulfo-tagged anti-human IgG detection).
Description: Direct ELISA assays were conducted to characterize antibody binding specificity of selected antibodies of the invention. The assay was performed as follows. A 384-well streptavidin-coated Meso Scale Discovery (MSD) plate was blocked by incubating the plate with 50 μL Blocking Buffer (PBS, pH 7.4, 5% w/v bovine serum albumin) per well at 22° C. for 1 hour with constant shaking (600 rpm). The blocked MSD plate was then washed 3 times with Wash Buffer (PBS, pH 7.4 and 0.05% v/v Tween-20) using a plate washer (BioTek). Following washing, biotinylated human ANGPTL4 proteins diluted in Assay Buffer (PBS, pH 7.4 without CaCl₂ or MgCl₂, 0.5% w/v fatty acid-free bovine serum albumin and 0.02% v/v Tween-20) were immobilized on the surface by incubation at 1 nM concentration (15 μL per well) at 22° C. for one hour: full length human ANGPTL4 (hANGPTL4), human ANGPTL4 coiled-coil domain (hANGPTL4-CCD) and full length human ANGPTL3 (hANGPTL3). The plate was then washed 3 times as described earlier. Antibody diluted to 1 nM concentration in Assay Buffer was then applied to the MSD plate (15 μL per well), and the plate was incubated for 1 hour at 22° C. with constant shaking (600 rpm). Bound antibodies were detected by adding 15 μL per well of a 1:500 dilution of Sulfo-tagged goat anti-human IgG. The plate was then incubated for one hour with constant shaking (600 rpm). The plate was washed 3 times, and then 15 μL/well of 1× MSD read buffer T was added and the plate was developed using a Sector Imager 6000 (Meso Scale Discovery). The data were transferred to Microsoft Excel for analysis and plotted using GraphPad Prism v6. […] An ANGPTL3-specific reference antibody was used as a positive control for the ANGPTL3 binding assay (FIG. 2).

Row | binding result | Binder
1 | no binding (tested: 1 nM) | B1
2 | no binding (tested: 1 nM) | B2
3 | no binding (tested: 1 nM) | B3
4 | no binding (tested: 1 nM) | B4
5 | no binding (tested: 1 nM) | B5
6 | no binding (tested: 1 nM) | B6
7 | no binding (tested: 1 nM) | B7

Each binder was assayed against T2, Human ANGPTL4(26-406)-FLAG-His6-Avi (assay: SET (solution equilibrium titration), MSD detection, IgG).
Description: SET assays were performed as follows. In a 96-well polypropylene plate, a constant concentration of ANGPTL4 antibody (10 pM) was mixed with different concentrations of non-biotinylated human, cyno, mouse, or rat full-length ANPGLT4 protein, or human ANGPTL4 N-terminal domain protein (5-fold serial dilution ranging from 0.01 pM to 100 nM) in SET buffer (PBS, pH 7.4 without CaCl₂) or MgCl₂, 0.5% w/v bovine serum albumin (fatty acid free) and 0.02% v/v Tween-20). The final reaction volume was 80 μL. The plate was sealed using an adhesive film and incubated at 22° C. for 14 hours with constant shaking (300 rpm). During the same period of time, a 384-well streptavidin-coated Meso Scale Discovery (MSD) plate was blocked by incubating the plate with 50 μL blocking buffer (PBS, pH 7.4, 5% w/v bovine serum albumin) per well at 4° C. The blocked MSD plate was washed 3 times with wash buffer (PBS, pH 7.4 and 0.05% v/v Tween-20) using a plate washer (BioTek). Biotinylated ANGPTL4 (full-length human, cyno, mouse, or rat ANGPTL4, or human ANGPTL4 N-terminal domain) protein (1 nM, 15 μL per well) was immobilized on the surface of the streptavidin-coated MSD plate by incubation at 22° C. for one hour with constant shaking (600 rpm). The plate was then washed 3 times as described earlier.
The equilibrium binding reactions (15 μL per well) were applied to the MSD plate with immobilized ANGPTL4 and incubated for 20 min at 22° C. The unbound material was removed by washing the plate 3 times with wash buffer, and the captured antibody was detected by adding 15 μL per well of a 1:500 dilution of Sulfo-tagged goat anti-human IgG (Meso Scale Discovery). The plate was then incubated for one hour with constant shaking (600 rpm). The plate was washed 3 times, and then 15 μL/well of 1× MSD read buffer T was added and the plate was developed using a Sector Imager 6000 (Meso Scale Discovery). The data were transferred to Microsoft Excel for analysis and plotted using GraphPad Prism v6. The KD values were determined by fitting the data to the following equation: […]
where Bₘₐₓ is the signal when no ANGPTL4 protein is present in solution, CAb is the constant concentration of ANGPTL4 antibody in solution, CAg is the concentration of ANGPTL4 in solution, and KD is the equilibrium dissociation constant.

Row | Kd [nM] | Binder
8 | 0.024 | B1
9 | 0.015 | B2
10 | 0.008 | B8
11 | 0.021 | B3
12 | 0.012 | B4
13 | 0.016 | B5
14 | 0.009 | B6
15 | 0.009 | B7
